Results reported in patent US6451312.

Experiments:
human endoglin (human) [1] = target: human endoglin (human) (UniProt P17813); assay: FACS, corrected fluorescence intensity grade, L-endoglin transfectant
human endoglin (human) [2] = target: human endoglin (human) (UniProt P17813); assay: competition FACS on HUVEC; unlabelled TEC-4 against biotinylated TEC-11 (competitor), ratio 1:1
human endoglin (human) [3] = target: human endoglin (human) (UniProt P17813); assay: FACS, corrected fluorescence intensity grade, HUVEC
human endoglin (human) [4] = target: human endoglin (human) (UniProt P17813); assay: cell-based or functional assay
human endoglin (human) [5] = target: human endoglin (human) (UniProt P17813); assay: FACS, corrected fluorescence intensity grade, A375M and T8
human endoglin (human) [6] = target: human endoglin (human) (UniProt P17813); assay: indirect immunofluorescence FACS on HUVEC, 10 µg/ml
human endoglin (human) [7] = target: human endoglin (human) (UniProt P17813); assay: competition FACS on HUVEC; unlabelled TEC-4 against biotinylated TEC-11 (competitor), ratio 1:100
human endoglin (human) [8] = target: human endoglin (human) (UniProt P17813); assay: FACS, corrected fluorescence intensity grade, HT-1080 and SAOS-2
human endoglin (human) [9] = target: human endoglin (human) (UniProt P17813); assay: FACS, corrected fluorescence intensity grade, MDA-MB-231 and SKBR3
human endoglin (human) [10] = target: human endoglin (human) (UniProt P17813); assay: FACS, corrected fluorescence intensity grade, U937
human endoglin (human) [11] = target: human endoglin (human) (UniProt P17813); assay: FACS on HUVEC, half-maximal fluorescence
human endoglin (human) [12] = target: human endoglin (human) (UniProt P17813); assay: FACS, corrected fluorescence intensity grade, ECV-304
human endoglin (human) [13] = target: human endoglin (human) (UniProt P17813); assay: FACS, 20 µg/ml TEC-11, sorted Endoglin^hi fraction of postconfluent HUVEC; SD in parentheses
human endoglin (human) [14] = target: human endoglin (human) (UniProt P17813); assay: FACS, 20 µg/ml TEC-11, sorted Endoglin^lo fraction of postconfluent HUVEC; SD in parentheses
human endoglin (human) [15] = target: human endoglin (human) (UniProt P17813); assay: competition FACS on HUVEC; unlabelled TEC-11 against biotinylated TEC-4 (competitor), ratio 1:1

| corrected fluorescence intensity (CFI) (human endoglin (human) [1]) [cfi] | percent blocking of biotinylated TEC-11 (human endoglin (human) [2]) [%] | corrected fluorescence intensity (CFI) (human endoglin (human) [3]) [cfi] | complement-mediated lysis of HUVEC (guinea pig complement, trypan blue) (human endoglin (human) [4]) [%] | corrected fluorescence intensity (CFI) (human endoglin (human) [5]) [cfi] | specific mean fluorescence intensity (MFI) (human endoglin (human) [6]) | percent blocking of biotinylated TEC-11 (human endoglin (human) [7]) [%] | corrected fluorescence intensity (CFI) (human endoglin (human) [8]) [cfi] | corrected fluorescence intensity (CFI) (human endoglin (human) [9]) [cfi] | corrected fluorescence intensity (CFI) (human endoglin (human) [10]) [cfi] | EC50 (human endoglin (human) [11]) [µg/mL] | corrected fluorescence intensity (CFI) (human endoglin (human) [12]) [cfi] | MFI (human endoglin (human) [13]) | complement fixation relative to TEC-4 (human endoglin (human) [4]) [fold] | MFI (human endoglin (human) [14]) | percent blocking of biotinylated TEC-4 (human endoglin (human) [15]) [%] | Substance |
| --- | --- | --- | --- | --- | --- | --- | --- | --- | --- | --- | --- | --- | --- | --- | --- | --- |
| 50 to 100 | 1 | > 100 | 48 | 5 to 25 | 200 | 20 | 5 to 25 | 5 to 25 | 5 to 25 | 4 | 25 to 50 | – | – | – | – | TEC-4 (tumor endothelial cell antibody 4) |
| 50 to 100 | – | > 100 | > 50 | 5 to 25 | 200 | – | 5 to 25 | 5 to 25 | 5 to 25 | 0.4 | 25 to 50 | 270 | 100 | 61.6 | 51 | TEC-11 (tumor endothelial cell antibody 11) |
